Publication PMC3459938

Key:
Assay in all cases: ELISA
[1] = target: WW2-GFP (construct 7) (human) (UniProt P46934)
WW3-GFP (human) = WW3-GFP (human) (UniProt P46934)
[2] = target: WW4-GFP (construct 9) (human) (UniProt P46934)
WW_(2-3-4)-GFP (human) = WW_(2-3-4)-GFP (human) (UniProt P46934)
[3] = target: construct 2 (WW2-WW3-GFP, natural linker) (human) (UniProt P46934)
[4] = target: construct 4 (two WW domains joined by QGLQNEE, GFP fusion)
[5] = target: construct 5 (two WW domains joined by QGLQNEE, GFP fusion)

Adenovirus serotype 3 Penton-Dodecahedron (from UniProt Q2Y0H9 1-544; P04501 1-319) (complex)
percent Pt-Dd binding relative to WW (2-3-4)-GFP [1]: 13% | Kd (WW3-GFP (human)): 0.0824 nM | percent Pt-Dd binding relative to WW (2-3-4)-GFP (WW3-GFP (human)): 80% | percent Pt-Dd binding relative to WW (2-3-4)-GFP [2]: 40% | Kd (WW_(2-3-4)-GFP (human)): 0.0525 nM | decrease in affinity relative to WW (2-3-4)-GFP [3]: 20% | decrease in affinity relative to WW (2-3-4)-GFP [4]: 20% | decrease in affinity relative to WW (2-3-4)-GFP [5]: 20%
